Measured values as given in patent US20210353712A1, “METHODS OF DIAGNOSING AND TREATING VASCULAR ASSOCIATED MACULOPATHY AND SYMPTOMS THEREOF” (University of Utah Research Foundation, priority 2011, published 2021).

Tested on: DQ elastin
Test: In vitro elastin degradation assay
Format: biochemical
Protocol: Therefore, studies were performed to determine whether HTRA1 degrades elastin, a major component of Bruch's membrane. Recombinant HTRA1 was incubated with dye-labeled elastin at 37° C. for two hrs and the fluorescence of the released elastin peptides was monitored at 513 nm. […] In an additional positive control assay, HTRA1 elastase activity was measured by fluorescence using various concentrations of elastase enzyme starting with 0.04 ng/well of porcine pancreatic elastase and 100 ng/well of Protealmmun HtrA1. DQ Elastin substrate was 25 ug/ml.
Recombinant HtrA1 protein expressed and purified from Sf9 cells was purchased from Protealmmun (Cat. #30600103). The HtrA1 elastase activity was measured using a fluorescent EnzChekElastase Assay Kit from Invitrogen (Cat. #E12056) using the protocol provided, except substrate concentration was 12.50 ? g/mL. HtrA1 concentration was titrated from 200-12.5 ng/well in two-fold dilutions. Activity was measured in 30-minute increments for a total of 2 hours.
The explanation for the elastin degradation in both the Bruch's membrane and the choroid vessels in the HTRA1 mice is that the protease activity of overexpressed HTRA1, which is secreted from RPE, caused the degeneration. Since HTRA1 was not known to have elastase activity, an in vitro elastin degradation assay was performed using DQ elastin, a soluble elastin labeled with quenched BODIPY FL dye, as a substrate. Purified recombinant human HTRA1 degraded elastin with a specific activity of 4.4±0.8 u/mg (n=3). […] To eliminate the possibility that the depletion of the elastic layers of the choroidal vessels and Bruch's membrane was the result of downregulation of elastin expression, we analyzed the protein level of soluble elastin in the RPE/choroid of hHTRA1^+ and WT mice by western blot. […] This is similar to what has been observed in human donors with AMD and with aberrant choriocapillaris lobules.

| Substance | Degradation of dye-labeled elastin (37° C. for two hrs, fluorescence at 513 nm) | Elastase activity, times less than porcine pancreas elastase (DQ elastin substrate) [times] | Elastase specific activity (DQ elastin substrate) [u/mg] |
| --- | --- | --- | --- |
| recombinant human HTRA1: purified recombinant human HTRA1 serine protease | degraded dye-labeled elastin | ~30 | 4.4±0.8 |
| porcine pancreas elastase: reference elastase enzyme [reference compound] | – | – | 135±5.5 |
